Assay results published in the supplement of paper PMC10567573.
± gives the standard deviation.

Experiment: protein stability index of a GFP-peptide fusion (GPS, HEK-293T) (PSI 1-6); higher = more stable
[1] = treatment: DMSO, c terminus: a fixed tail appended
[2] = treatment: MLN4924 1 uM, 8 h, c terminus: a fixed tail appended
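Also: 24-mer peptide tiles fused after GFP, lentivirally expressed, FACS-sorted into six equal bins by GFP/DsRed ratio, decoded by Illumina sequencing, PSI is the read-weighted mean bin number.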

Sequence | protein stability index [1] | protein stability index [2] | protein stability index (treatment: DMSO, c terminus: native) | protein stability index (treatment: MLN4924 1 uM, 8 h, c terminus: native)
NLFFAWIKIFKYISFNKTMTQLSS [PKD2L1] | 3.05 ± 0.49 | 2.99 ± 0.44 |  | 
KLQREMERREALCRQLSESESSLE [CCDC6] | 4.68 ± 0.18 | 4.85 ± 0.16 |  | 
NALTLTFQRAMHDYNQAEMKQRDN [STX11] | 3.54 ± 0.15 | 3.68 ± 0.12 |  | 
TEYQIVTDPGDVPAFLKWLSLASL [SLC2A12] | 2.26 ± 0.35 | 2.16 ± 0.42 |  | 
TWEHSNLEVNKPKNRYANVIAYDH [PTPRD] | 2.98 ± 0.27 | 3.02 ± 0.32 |  | 
PQRYPACAQMLPPNLSPHAPWNYH [TRAF3IP2] | 2.31 ± 0.37 | 2.11 ± 0.25 |  | 
NFADEDEAQAFRALVQEKIQKRNQ [WAS] | 4.55 ± 0.29 | 4.62 ± 0.3 |  | 
SSSQKEESPSTLQVLPDSESLPRS [MAGEA10] | 5.36 ± 0.23 | 5.4 ± 0.16 |  | 
IGRAAGTGFTVNVAWNGPRMGDAD [HDAC6] | 3.02 ± 0.28 | 3.15 ± 0.32 |  | 
PLRADHMVKEPVEDTDPSTLSFNM [EDARADD] | 5.1 ± 0.083 | 4.86 ± 0.46 |  | 
ADWWQEPDAKGDEAEAEPEPELA [P3H4] |  |  | 5.67 ± 0.21 | 5.42 ± 0.31
GGAGREDPGLWSRLCRLAGASSPA [ZSWIM9] | 3.12 ± 0.17 | 2.92 ± 0.36 |  | 
RLFLDGEEEKEWAFEESKIDEHHF [AASDHPPT] | 4.37 ± 0.26 | 4.42 ± 0.21 |  | 
EEQATKQFLEEINKWTVQYNVSPL [PTPN9] | 2.96 ± 0.54 | 3.15 ± 0.43 |  | 
QPVVDTFDIRILMAKSVKYTVNFL [CARM1] | 2.79 ± 0.7 | 2.62 ± 0.56 |  | 
QPLRPWAGGDVPHKTHQAPASASS [DYRK1B] | 4.54 ± 0.17 | 4.58 ± 0.26 |  | 
DKRGETTSASLLNAGLSHTEYQIV [SLC2A12] | 3.69 ± 0.17 | 3.91 ± 0.26 |  | 
CILVEMHTGEPLFSGSNEVDQMNR [DYRK1B] | 2.58 ± 0.07 | 2.58 ± 0.22 |  | 
LFEGMIWFLVPISSVICNDITAYL [CDS1] | 3.91 ± 0.42 | 3.38 ± 0.86 |  | 
ADSETPTIQKGSYTFVPWLLSFKR [TNFSF13B] | 2.52 ± 0.28 | 2.58 ± 0.26 |  | 
QRQKYLSLQQMQELSNILNLSYKQ [NANOGP8] | 2.57 ± 0.29 | 2.69 ± 0.15 |  | 
MGGHHPGADYPVDGLPDLGHAQDL [CTNNB1] | 5.03 ± 0.25 | 5.03 ± 0.3 |  | 
ARMLREYQELMSLKLALDMEIATY [KRT71] | 2.19 ± 0.62 | 2.44 ± 0.21 |  | 

Sequence | protein stability index [1] | protein stability index [2] | protein stability index (treatment: DMSO, c terminus: native) | protein stability index (treatment: MLN4924 1 uM, 8 h, c terminus: native)
YISRKYFATRPGAIETAMEDLKGH [TPRG1] | 2.73 ± 0.41 | 2.81 ± 0.43 |  | 
QKEDVKPYQVNGVNPAYPESRYTS [ETS1] | 4.53 ± 0.18 | 4.48 ± 0.15 |  | 
AGSHQYPGRGVYLLKFDNSYSLWR [ACBD3] | 2.43 ± 0.25 | 2.22 ± 0.29 |  | 
FNYELVKSWLNGFRPKDQTSVGMS [SLC25A39] | 1.95 ± 0.32 | 1.97 ± 0.3 |  | 
LHVAAHYGRDSFVRLLLEFKAEVD [ASB7] | 2.15 ± 0.14 | 2.15 ± 0.37 |  | 
TPSFSGDSSSSCSDHCITSSDMMD [VDR] | 5.11 ± 0.28 | 5.11 ± 0.12 |  | 
AQVRKLELERAQHELLLGSLQQQH [FBF1] | 3.62 ± 0.18 | 3.71 ± 0.17 |  | 
SELERESKVVVPPLPGKAFLRQLP [SNX3] | 3.67 ± 0.18 | 3.86 ± 0.59 |  | 
QAQGQLRELLDRAMREAIQSYPSQ [SOAT2] | 3.01 ± 0.31 | 3.11 ± 0.31 |  | 
EEAVPEEEGPTVVLNPHPSLGYKE [CHGA] | 5.33 ± 0.28 | 5.32 ± 0.38 |  | 
IGLRLVLEYLYTANVTLSLDTVEE [KLHL14] | 2.96 ± 0.5 | 3.02 ± 0.47 |  | 
PPYLPLAVPEDLADRLVRVHGDPA [FUT8] | 4.22 ± 0.12 | 4.31 ± 0.28 |  | 
KEKTAKHFFALKVMSIPDVIRLKQ [PRKX] | 2.44 ± 0.23 | 2.22 ± 0.2 |  | 
EISVDSLDFSKKILHTAWHPSENI [PPP2R2B] | 2.28 ± 0.26 | 2.41 ± 0.21 |  | 
VKVIRDFTTNKCKGFGFVTMTNYD [ELAVL3] | 2.35 ± 0.47 | 2.15 ± 0.22 |  | 
VKLWKVSERDKRPEGYNLKDEEGR [PPP2R2B] | 4.07 ± 0.5 | 4.336 ± 0.038 |  | 
GIRLPNGKLKCDICGIICIGPNVL [IKZF1] | 2.61 ± 0.48 | 2.46 ± 1 |  | 
SPEVLRKDPYGKPVDLWACGVILY [CAMK2A] | 2.67 ± 0.56 | 2.49 ± 0.49 |  | 
DKKKELQELNELFKPVVAAQKISK [ZC3H15] | 4.39 ± 0.32 | 4.43 ± 0.17 |  | 
ADQTVLTEDEKKELENLAAMDLEL [CHGB] | 5.6 ± 0.28 | 5.61 ± 0.16 |  | 
KERPLVIGHFNTASGVGFILGPVV [MFSD9] | 3.04 ± 1.1 | 2.77 ± 0.51 |  | 
KSKLTYMCRVDLRGHMPEWYTKSF [DLC1] | 2.68 ± 0.65 | 2.43 ± 0.29 |  | 
YPRYPDIHDLDLTLLNPRMIVDVT [CLCN6] | 2.48 ± 0.14 | 2.54 ± 0.22 |  | 

Sequence | protein stability index [1] | protein stability index [2] | protein stability index (treatment: DMSO, c terminus: native) | protein stability index (treatment: MLN4924 1 uM, 8 h, c terminus: native)
QCAVLIYTSGTTGIPKGVMLSHDN [ACSBG2] | 2.65 ± 0.51 | 2.58 ± 0.72 |  | 
MRPWTGSWRWIMLILFAWGTLLFY [FUT8] | 3.24 ± 0.16 | 3 ± 0.092 |  | 
LPHLQDSFVDKLLDLMPRLMTSKP [INTS4] | 2.16 ± 0.2 | 2.15 ± 0.24 |  | 
QEITEQQDIAQEISEAFSQRVGFG [CHMP4C] | 5.02 ± 0.14 | 4.77 ± 0.38 |  | 
FKEVKEKFKGWVSYSTSEQAELSY [DLC1] | 3.13 ± 0.27 | 2.87 ± 0.31 |  | 
RFNKLGLDHLSLGEEPVPHQQVEE [NEK8] | 4.91 ± 0.22 | 4.89 ± 0.26 |  | 
TITSEVIEKCTTPLSDDHDEKYGV [CRY1] | 5.21 ± 0.12 | 4.99 ± 0.22 |  | 
MLIFSLALEEPEKMGLQERSETFL [DNAAF3] | 2.18 ± 0.32 | 2.38 ± 0.12 |  | 
KKFRTKSRTWAGEKSKREMYSRLK [CDC25A] | 3.05 ± 0.39 | 3.46 ± 0.28 |  | 
RVWLKRDSGQYWPSIYHTMASPCS [WDFY1] | 2.06 ± 0.27 | 2.16 ± 0.21 |  | 
AEEAEILHSACGLSKDHQEVETEG [TOR1AIP2] | 5.45 ± 0.33 | 5.72 ± 0.24 |  | 
LAKQPGVSVNAQTLDGRTPLHLAA [RIPK4] | 3.99 ± 0.76 | 4.02 ± 0.087 |  | 
KKKCLEWLLNNLMTHQNVELFKEL [GMCL1] | 2.54 ± 0.17 | 2.83 ± 0.78 |  | 
FRVVDCDQFTQVFLESQGIELNPP [EFHC1] | 2.01 ± 0.14 | 2.27 ± 0.17 |  | 
NWWIRGILTLTMISLFFLIIYMGS [CDS1] | 2.54 ± 0.16 | 2.55 ± 0.35 |  | 
VAVKKKLQLYFWKDREFHELQGDF [VPS39] | 2.12 ± 0.3 | 2.06 ± 0.58 |  | 
SAEWFITAVGAILAGGLCVGIYAT [ACSBG2] | 3.53 ± 0.57 | 3.18 ± 0.091 |  | 
EEPVPRERDRDPCGGSGGGGGGGG [LURAP1L] | 5.69 ± 0.29 | 5.67 ± 0.22 |  | 
SGSGGTVAPATMGSARSHASSRAS [ZBTB22] | 4.77 ± 0.18 | 4.68 ± 0.24 |  | 
RKDFSELRSAGVEQLMYIKEDLII [FAM50A] | 2.24 ± 0.21 | 2.13 ± 0.34 |  | 
QEYNIPGVIQSVIGWKTVRMYPFQ [CDS2] | 2.45 ± 0.67 | 2.42 ± 0.3 |  | 
SAIQALRSSVSRVFDCLKDGMRNK [MED27] | 2.7 ± 0.33 | 2.49 ± 0.28 |  | 
GDSFSHSSNRIRHLRTHTGERPYK [ZNF263] | 4.28 ± 0.14 | 4.62 ± 0.16 |  | 

Sequence | protein stability index [1] | protein stability index [2] | protein stability index (treatment: DMSO, c terminus: native) | protein stability index (treatment: MLN4924 1 uM, 8 h, c terminus: native)
LQLGAAKKPPVTFAEKGELRKSIF [TRIM29] | 3.14 ± 0.16 | 3.25 ± 0.21 |  | 
LSEEEKEELKAELVQLEDEITTLR [TPD52L1] | 5.03 ± 0.17 | 5.2 ± 0.19 |  | 
EIQVDSEEPVFEAVINWVKHAKKE [KLHL12] | 3.57 ± 0.4 | 3.92 ± 0.95 |  | 
PRLWTTCRDGEVLLRLSKHGPGHE [ACSBG2] | 2.4 ± 0.15 | 2.21 ± 0.17 |  | 
KVKKLKNLKTLDSKPGVYTSYKPY [DENND6A] | 2.66 ± 0.28 | 2.81 ± 0.42 |  | 
ESTIVELGSIFQQLAHMVKEQEET [STX5] | 2.4 ± 0.7 | 3.25 ± 0.094 |  | 
YEDIRRENPVGTFHCSMSPGNLEK [PTPN9] | 4.58 ± 0.23 | 4.73 ± 0.13 |  | 
RLRKCYEVGMVKCGSRRERCGYRL [ESR2] | 2.54 ± 0.4 | 2.43 ± 0.29 |  | 
DTLADDVPGHQTPSDLDQFSDSSL [LURAP1L] | 5.44 ± 0.2 | 5.366 ± 0.053 |  | 
PNKDMVVQLIDDFKISGMNGIHVC [SRPK2] | 2.38 ± 0.27 | 2.35 ± 0.25 |  | 
RRSFLIEHQRSHTGERPHQCIECG [ZSCAN9] | 3.3 ± 0.39 | 3.8 ± 0.35 |  | 
DPERRPSAMALVKHSVLLSASRKS [WEE1] | 4.15 ± 0.3 | 4.05 ± 0.36 |  | 
ATSLFVELDEEEVKAATTEPTEVE [BCL2L13] | 5.48 ± 0.4 | 5.62 ± 0.12 |  | 
STSRHVMAPVMAHVDPEEPWSPCS [ADAMTS4] | 4.32 ± 0.14 | 4.41 ± 0.17 |  | 
AGLCMDSPSPMDPHMAEQTFEQAI [CDC25B] | 4.5 ± 0.47 | 4.6 ± 0.15 |  | 
EEGDEQQRLLNTPRRKKLKSTSKY [GMCL1] | 4.75 ± 0.12 | 4.9 ± 0.39 |  | 
APDKTSTVLTRHSQPATPTPLQSR [PDLIM7] | 4.68 ± 0.17 | 4.82 ± 0.23 |  | 
PENILLDRDGHIKLTDFGFAKKLV [PRKX] | 2.9 ± 0.17 | 3.08 ± 0.072 |  | 
FRENGRNCKRERDARVKRKLRGPE [TBX6] | 3.92 ± 0.3 | 4.05 ± 0.22 |  | 
ERLLCPSLLAGTADGSLRMDDPKG [M1AP] | 4.74 ± 0.3 | 4.71 ± 0.3 |  | 
